From patent US11667697 come the findings set out here.

The target in assay [1] is VARV ortholog of L1 (variola virus). The assay is described as follows: purified antigen ELISA. In general terms: ELISA stands for enzyme-linked immunosorbent assay.
The target of assay [2] is MPXV ortholog of L1 (monkeypox virus). As to the kind of experiment: lysate ELISA.
The target in assay [3] is CPXV ortholog of L1 (cowpox virus). As to the kind of experiment: lysate ELISA.
Assay [4] addresses MPXV ortholog of L1 (monkeypox virus). As to the kind of experiment: cell-based or functional assay.
Assay [5] deals with CPXV ortholog of L1 (cowpox virus). The assay is described as follows: cell-based or functional assay.
Assay [6] addresses VACV A21 protein (vaccinia virus). As to the kind of experiment: purified antigen ELISA.
Assay [7] addresses MPXV ortholog of H5 (monkeypox virus). As to the kind of experiment: lysate ELISA.
Assay [8] deals with CPXV ortholog of H5 (cowpox virus). As to the kind of experiment: lysate ELISA.
Assay [9] addresses VACV H5 protein (vaccinia virus). The assay is described as follows: lysate ELISA.

B1: MPXV-87 (antibody, V domains shown)
V domain 1: QVQLVQSGAEVKKPGASVKVSCKASGYTFTSHGIIWVRQAPGQGLEWMGWISVYNDNTNSAQKFQDRVTMTTATSTSTAYMELRSLRSDDTAVYYCARSSSGPRYYYYGMDVWGQGTTSP
V domain 2: QSVVTQPPSVSGAPGQRVTISCTGSSSNIGAGYAVHWYYQLPGIAPKLLIFGNNNRPSGVPDRFSGSKSGTSASLAITGLQAEDEADYYCQSYDSSLSGWVFGGGTQVTVL
A word on the EC50: it is the concentration at which the effect is half-maximal. The low end stands for higher potency in that assay, the high end for lower potency in that assay. Regarding B1, the EC50 in assay [1] amounted to 0.3 µg/mL. Besides, the EC50 in assay [2] is 0.001 µg/mL. For the same molecule, in [3], the EC50 was found to be 0.003 µg/mL. In assay [4], this molecule showed a PRNT Emax, MPXV MV of 57%; a PRNT Emax, MPXV MV+C' of 65%; a PRNT IC50, MPXV MV of 50 µg/mL; a PRNT IC50, MPXV MV+C' of 50 µg/mL. Besides, in assay [5], the PRNT Emax, CPXV MV was determined as 63%; the PRNT Emax, CPXV MV+C' turned out to be 82%; the PRNT IC50, CPXV MV stood at 0.8 µg/mL; the PRNT IC50, CPXV MV+C' was determined as 0.6 µg/mL.

B2: VACV-318 (antibody, V domains shown)
VH: SYELTQPPSVSVSPGQTARITCSGDELPKRYAYWYQQKSGQAPVLVIYEDTKRPSGIPERFSGSSSGTVATLTISGAQVDDEADYYCYSTDSTSNHKRVFGGGTQVTVL
V domain: QVQLVESGGGVVQPGRSLRLSCTASGFNFSYYGIHWVRQAPGKGLQWVALISYDGSDKYYADSVKGRFTVSRDYSKNTLFLQMNSLRGDDTAVYYCQMVKVPFYFWGQGTMVTLSS
The molecule B2 displayed an EC50 in [6] of 1.3 µg/mL.

B3: VACV-308 (antibody, V domains shown)
VH: QVQLVQSGAEVKKPGSSVKVSCKGSGDSFRSYAISWVRQAPGQGLEWMGGIIPRFGTTNYAQKFQDRVTITADKSTTTAYMELRSLKCEDTGVYYCARPQSAYDFGPFDHWGQGTLVTVSS
VL: SYELTQPPSLSVAPGKTARITCGGDNIGSKGVHWYQQKPGQAPVVVISYDSDRPSGIPERFSGSNSGDTATLTISRVEAGDEADYYCHVWHTTTDHYVFGTGTKVTVL
On to B3, for which the EC50 in [7] was determined as 0.003 µg/mL; in assay [8] it was 0.002 µg/mL; in [9] it was 0.006 µg/mL.
